Experimental data reported in US20090155873A1, “BIOFUEL PRODUCTION” (BIO ARCHITECTURE LAB, INC., priority 2007, published 2009).

Legend:
Assay type in all cases: biochemical
[1] = Assay for D-mannuronate hydrogenase (NADPH dependent hydrogenation); settings: cell lysate, absorbance at 340 nm for 30 min, FIG. 7B
Protocol: (§1) To identify D-mannuronate hydrogenase, a NADPH dependent D-mannuronate hydrogenation assay was performed. 20 μl of prepared cell lysate containing each ADH was added to 160 μl of D-mannuronate solution prepared in the above section. 20 μl of 2.5 mg/ml of NADPH solution (20 mM Tris-HCl, pH 8.0) was added to initiate the hydrogenation reaction. The consumption of NADPH was monitored an absorbance at 340 nm for 30 min using the kinetic mode of ThermoMAX 96 well plate reader (Molecular Devises). E. coli cell lysate containing alcohol dehydrogenase (ADH) 10 lacking a portion of N-terminal domain was used in a control reaction mixture.

[2] = Assay for DEHU hydrogenase (NADPH dependent DEHU hydrogenation); settings: cell lysate, absorbance at 340 nm for 30 min, FIG. 7A
Protocol: as §1, with “identify DEHU” for “identify D-mannuronate”, “dependent DEHU” for “dependent D-mannuronate”, “of 20-fold deluted DEHU” for “of D-mannuronate”, “hydrogenation reaction, as a preliminary study using cell lysate of A. tumefaciens C58 have shown that DEHU hydrogenation requires NADPH as a co-factor.” for “hydrogenation reaction.”

[3] = NADPH Production Assay (oxidation of 4-octanol); settings: NADP+, 30° C., FIG. 30B
Protocol: Various secondary alcohol dehydrogenases (2ADHs) were isolated from Pseudomonas putida KT2440, Pseudomonas fluorescens Pf-5, and Klebsiella pneumoniae MGH 78578. All vectors were transformed in BL21(DE3) competent cells and expression of the genes encoding the proteins of interest was induced with IPTG (via the T7 promoter). The cells were lysed, proteins were extracted and then purified on Ni-NTA columns. Final protein concentration in the Ni-NTA eluate was diluted to 0.15 mg/mL prior to assays.
[…] consumption and production assays were performed using a THERMOmax microplate reader in the kinetic mode, monitoring the NADPH absorbance peak at 340 nm until the reaction reached equilibrium. […] These reaction conditions are found in Table 4 below.

[4] = In vitro pyruvate formation from alginate or mannuronate; settings: purified enzyme ~5 ug, over night, pyruvate assay kit, FIG. 6B and 6C

Molecule	mannuronate hydrogenase activity monitored by NADPH consumption [1]	oxidation of 4-octanol measured by NADPH production [3]	other results
ADH9: alcohol dehydrogenase ADH9 Atu4087 isolated from Agrobacterium tumefaciens C58, SEQ ID NO:86 (protein, Agrobacterium tumefaciens C58) MKAIVAHGAKDVRIEDRPEEKPGPGEVRLRLARGGICGSDLHYYNHGGFGAVRLREPMVLGHEVSAVIEELGEGVEGLKIGGLVAVSPSRPCRTCRFCQEGLHNQCLNMRFYGSAMPFPHIQGAFREILVADALQCVPADGLSAGEAAMAEPLAVTLHATRRAGDLLGKRVLVTGCGPIGILSILAARRAGAAEIVATDLSDFTLGKAREAGADRVINSKDEPDALAAYGANKGTFDILYECSGAAVALAGGITALRPRGIIVQLGLGGDMSLPMMAITAKELDLRGSFRFHEEFATGVELMRKGLIDVKPFITQTVDLADAISAFEFASDRSRAMKVQIAFS	significant mannuronate hydrogenase activity	–	–
ADH1: alcohol dehydrogenase ADH1 Atu1557 isolated from Agrobacterium tumefaciens C58, SEQ ID NO:70 (protein, Agrobacterium tumefaciens C58) MFTTSAYACDDGSSPMKLATIRRRDPGPRDVEIEIEFCGVCHSDIHTARSEWPGSLYPCVPGHEIVGRVGRVGAQVTRFKTGDRVGVGCIVDSCRECASCAEGLEQYCENGMTGTYNSPDKAMGGGAHTLGGYSAHVVVDDRYVLNIPEGLDPAAAAPLLCAGITTYSPLRHWNAGPGKRVGVVGLGGLGHMAVKLANAMGATVVMITTSPGKAEDAKKLGAHEVIISRDAEQMKKATSSLDLIIDAVAADHDIDAYLALLKRDGALVQVGAPEKPLSVMAFSLIPGRKTFAGSMIGGIPETQEMLDFCAEKGIAGEIEMIDIDQINDAYERMIKSDVRYRFVIDMKSLPRQKAA	–	–	DEHU hydrogenase activity monitored by NADPH consumption [2]: significant DEHU hydrogenase activity
2ADH-10: secondary alcohol dehydrogenase isolated from Pseudomonas putida KT2440, SEQ ID NO:128 (protein, Pseudomonas putida KT2440) MSKTHLFDLDGKIAFVSGASRGIGEAIAHLLAQQGAHVIVSSRKLDGCQQVADAIIAAGGKATAVACHIGELEQIQQVFAGIREQFGRLDVLVNNAATNPQFCNVLDTDPGAFQKTVDVNIRGYFFMSVEAGKLMRENGGGSIINVASINGVSPGLFQGIYSVTKAAVINMTKVFAKECAPFGIRCNALLPGLTDTKFASALVKNEAILNAALQQIPLKRVADPKEMAGAVLYLASDASSYTTGTTLNVDGGFLS	–	catalyze the oxidation of 4-octanol in the presence of NADP+	–
ADH3: alcohol dehydrogenase ADH3 Atu0626 isolated from Agrobacterium tumefaciens C58, SEQ ID NO:74 (protein, Agrobacterium tumefaciens C58) MTKTMKAAVVRAFGKPLTIEEVAIPDPGPGEILINYKATGVCHTDLHAATGDWPVKPNPPFIPGHEGAGYVAKIGAGVTGIKEGDRAGTPWLYTACGCCIPCRTGWETLCPSQKNSGYSVNGSFAEYGLADPKFVGRLPDNLDFGPAAPVLCAGVTVYKGLKETEVRPGEWVVISGIGGLGHMAVQYAKAMGMHVVAADIFDDKLALAKKLGADVVVNGRAPDAVEQVQKATGGVHGALVTAVSPKAMEQAYGFLRSKGTMALVGLPPGFISIPVFDTVLKRITVRGSIVGTRQDLEEALTFAGEGKVAAHFSWDKLENINDIFHRMEEGKIDGRIVVDLAA	significant mannuronate hydrogenase activity	–	–
2ADH-5: secondary alcohol dehydrogenase isolated from Pseudomonas putida KT2440, SEQ ID NO:118 (protein, Pseudomonas putida KT2440) MSKQLTLEGKVALVQGGSRGIGAAIVRRLAREGAQVAFTYVSSAGPAEELAREITENGGKALALRADSADAAAVQLAVDDTEKALGRLDILVNNAGVLAVAPVTEFDLADFDHMLAVNVRSVFVASQAAARYMGQGGRIINIGSTNAERMPFAGGAPYAMSKSALVGLTRGMARDLGPQGITVNNVQPGPVDTDMNPASGEFAESLIPLMAIGRYGEPEEIASFVAYLAGPEAGYITGASLTVDGGFAA	–	catalyze the oxidation of 4-octanol in the presence of NADP+	–
ADH2: alcohol dehydrogenase ADH2 Atu2022 isolated from Agrobacterium tumefaciens C58, SEQ ID NO:72 (protein, Agrobacterium tumefaciens C58) MAIARGYAATDASKPLTPFTFERREPNDDDVVIDIKYAGICHSDIHTVRNEWHNAVYPIVPGHEIAGVVRAVGSKVTRFKVGDHVGVGCFVDSCVGCATRDVDNEQYMPGLVQTYNSVERDGKSATQGGYSDHIVVREDYVLSIPDNLPLDASAPLLCAGITLYSPLQHWNAGPGKKVAIVGMGGLGHMGVKIGSAMGADITVLSQTLSKKEDGLKLGAKEYYATSDASTFEKLAGTFDLILCTVSAEIDWNAYLNLLKVNGTMVLLGVPEHAIPVHAFSVIPARRSLAGSMIGSIKETQEMLDFCGKHDIVSEIETIGIKDVNEAYERVLKSDVRYRFVIDMASLDA	–	–	DEHU hydrogenase activity monitored by NADPH consumption [2]: significant DEHU hydrogenase activity
Atu3026 (ADH12): alcohol dehydrogenase ADH12 Atu3026 isolated from Agrobacterium tumefaciens C58, SEQ ID NO:92 (protein, Agrobacterium tumefaciens C58) MQRFTNRTIVVAGAGRDIGRACAIRFAQEGANVVLTYNGAAEGAATAVAEIEKLGRSALAIKADLTNAAEVEAAISAAADKFGEIHGLVHVAGGLIARKTIAEMDEAFWHQVLDVNLTSLFLTAKTALPKMAKGGAIVTFSSQAGRDGGGPGALAYATSKGAVMTFTRGLAKEVGPKIRVNAVCPGMISTTFHDTFTKPEVRERVAGATSLKREGSSEDVAGLVAFLASDDAAYVTGACYDINGGVLFS	–	–	catalysis of DEHU hydrogenase and mannuronate hydrogenase reactions in pyruvate formation from alginate [4]: capable of catalyzing both DEHU hydrogenase and mannuronate hydrogenase reactions
ADH4: alcohol dehydrogenase ADH4 Atu5240 isolated from Agrobacterium tumefaciens C58, SEQ ID NO:76 (protein, Agrobacterium tumefaciens C58) MTGANQPWEVQEVPVPKAEPGLVLVKIHASGMCYTDVWATQGAGGDIYPQTPGHEVVGEIIEVGAGVHTRKVGDRVGTTWVQSSCGRCSYCRQNRPLTGQTAMNCDSPRTTGFATQGGHAEYIAISAEGTVLLPDGLDYTDAAPMMCAGYTTWSGLRDAEPKPGDRIAVLGIGGLGHVAVQFSKALGFETIAITHSPDKHKLATDLGADIVVADGKELLEAGGADVLLVTTNDFDTAEKAMAGVRPDGRIVLCALDFSKPFSIPSDGKPFHMMRQRVVGSTHGGQHYLAEILDLAAKGKVKPIVETFALEQATEAYERLSTGKMRFRGVFLPHGA	significant mannuronate hydrogenase activity	–	–
Atu3027 (ADH11): alcohol dehydrogenase ADH11 Atu3027 isolated from Agrobacterium tumefaciens C58, SEQ ID NO:90 (protein, Agrobacterium tumefaciens C58) MRSELPEGFFGPREWARLNAVADIIPGFPHTDFDTANGAEALAEADILLAAWGTPSLTRERLSRAPRLKMLAYAASSVRMVAPAEFWETSDILVTTAASAMAVPVAEFTYAAIIMCGKDVFRLRDEHRTERGTGVFGSRRGRSLPYLGNHARKVGIVGASRIGRLVMEMLARGTFEIAVYDPFLSAEEAASLGAKKAELDELLAWSDVVSLHAPILPETHHMIGARELALMADHAIFINTARGWLVDHDALLTEAISGRLRILIDTPEPEPLPTDSPFYDLPNVVLTPHIAGALGNELRALSDLAITEIERFVAGLAPLHPVHKQDMERMA	–	–	catalysis of DEHU hydrogenase and mannuronate hydrogenase reactions in pyruvate formation from alginate [4]: capable of catalyzing both DEHU hydrogenase and mannuronate hydrogenase reactions
2ADH-8: secondary alcohol dehydrogenase isolated from Pseudomonas putida KT2440, SEQ ID NO:124 (protein, Pseudomonas putida KT2440) MSLQGKVALVTGASRGIGQAIALELGRQGATVIGTATSASGAERIAATLKEHGITGTGMELNVTSAESVEAVLAAIGEQFGAPAILVNNAGITRDNLMLRMKDDEWFDVIDTNLNSLYRLSKGVLRGMTKARWGRIISIGSVVGAMGNAGQANYAAAKAGLEGFSRALAREVGSRGITVNSVTPGFIDTDMTRELPEAQREALQTQIPLGRLGQADEIAKVVSFLASDGAAYVTGATVPVNGGMYM	–	catalyze the oxidation of 4-octanol in the presence of NADP+	–
